Each substance was assayed against FITC-labeled CurA leader (Corynebacterium urealyticum DSM 7109) (assay: fluorescence polarisation).
Work on CurC I75A (natural protein) yielded a Kd of 66000 nM. With CurC D18A (natural protein) the Kd was 3300 nM. In the case of CurC E25A (natural protein), the Kd is reported as 4300 nM. CurC Y31A (natural protein) gave a Kd of over 150000 nM. For CurC R68A (natural protein), the Kd was 79000 nM. In the case of CurC E36A (natural protein), the Kd is reported as 3100 nM. CurC Q21A (natural protein) gave a Kd of 8000 nM.

Each substance was assayed against FITC-labeled StmA leader peptide (Streptomonospora alba) (assay: fluorescence polarisation).
StmE D75A (natural protein) showed a Kd of 35 nM. Substance StmE Y28A (natural protein) has a Kd of 28 nM. Substance StmE wild-type (natural protein) has a Kd of 35 nM. StmE D68A (natural protein) showed a Kd of 38 nM. Work on StmE N22A (natural protein) yielded a Kd of 410 nM. Work on StmE D69A (natural protein) yielded a Kd of 2600 nM. StmE Q76A (natural protein) showed a Kd of 75 nM. In the case of StmE V12A (natural protein), the Kd is reported as 160 nM.

The substances below were run against FITC-labeled HcaA leader peptide (Bacillus sp. Al Hakam) (assay: fluorescence polarisation).
With HcaF R73A (natural protein) the Kd was over 10000 nM. For HcaF E76A (natural protein), the Kd was 250 nM. HcaF N72A (natural protein) showed a Kd of 79 nM. With HcaF D38A (natural protein) the Kd was 77 nM. With HcaF E79A (natural protein) the Kd was 75 nM. HcaF I80A (natural protein) showed a Kd of 500 nM.

What follows are substances tested against FITC-labeled BalhA1 leader peptide (Bacillus sp. Al Hakam) (assay: fluorescence polarisation).
For BalhC H38A (natural protein), the Kd was 21000 nM. BalhC D32A (natural protein) gave a Kd of 21000 nM. In the case of BalhC wild-type (natural protein), the Kd is reported as 10000 nM. For BalhC E66A (natural protein), the Kd was 60000 nM. BalhC D23A (natural protein) was tested, and the Kd was 50000 nM. With BalhC K20A (natural protein) the Kd was 52000 nM.
